Laboratory results reported in the nanobody polyreactivity screen of Harvey et al. (2022).

Assay: yeast display, Sf9 membrane polyspecificity reagent, FACS + sequencing; frameworks hold sequencing errors
Method in brief: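 Galactose induction of a Saccharomyces cerevisiae BJ5465 synthetic nanobody display library ran 36–48 hours. The cells were then stained for 1 hour at 4 °C with 10% biotinylated, detergent-solubilized Sf9 membrane reagent, pulled down on streptavidin microbeads and FACS-sorted into low and high (top ~1%) gates on expression and reagent-binding fluorescence. Labels for polyreactivity follow the gate of origin.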

Row | Sequence | polyreactivity (PSR sort gate)
1 | QVQLVDSGGGLVQAGGSLRLTCAASGSIFPRNVMGWYRHAPGKERELVAAISSRATRTYYADSVKGRFTISRDNAKNTVYLQMNSLKPEDTAVYYCAADRTLYSSGYYYWGQGSQVTVSS | high polyreactivity
2 | QVQLVESGGGLVQAGGSLRLSCAATGFTFCANAMGWYRQAPGKERELVAAISWTGVNTYYADSVKGRFTISRDNAKNTVYLQMNSLKPEDTAVYSCAAEQWSTGYYYWGQGTQVTVSS | high polyreactivity
3 | QVHLVESGGGLVQAGGSLRLSCAASGSTFGSNAMGWYRQAPGKERELVAAITNGGSTNYADSVKGRFTISRDNAKNTVYLQMNSLKPDDTAVYYCNGDPQQSKLWTYFFGFPGYYWGQGTQVTVSS | low polyreactivity
4 | QVQLVESGGGLVQAGGSLRLSCAATGSTFYQYALGWYRQAPGKERELVAAISSRGTSTYYADSVKGRFTISRDNAKNTVYLQMNSLKPEDTAVYYCATEYTNWHRTWSLQTGGYGYWGQGTQGTVSS | high polyreactivity
5 | QVQLVESGGGLVQAGGSLRLSCAASGFILAWYAMGWYRQAPGKERELVAAISTSGDSTYYADSVKGRFTISRDNAKNTVYLQMNSLKPEDTAVYYCAAGTFKPYWRKFEYWGQGTQVTLSS | high polyreactivity
6 | QVQLGESGGGLVQAGGSLRLSCAASGSIFTYNPMGWYRQAPGKERELVAAITIDDGSTYYADSVKGRFTISRDNAKNTVYLQMNSLKPEDTAVYYCAADFYGVSYSGGEMDYWGLGTQVTVSS | low polyreactivity
7 | QVQLVESGGGLVQAGGSLRLSCAASGSTFDAYAMGWYRQAPGKERELVAAITNAGSTNYADSVKGRFTISRDNAKNTVYLQMNSLKPEDTAVYYCATDWYHRYLDGRYDYWGQGTQVTVSS | low polyreactivity
8 | QVQLVESGGGLVQAGGSLRLSCAASGFNFSYYAMGWYRQAPGKERELVAAINSGGVRTYYADSVKGRFTISRDNAKNTVYLQMNSLKPEDTAVYYCAARRHDSRYQYDYWGQGTQVTVSS | high polyreactivity
9 | QVQLVESGGGLVQAGGSLRLSCAASGSIFYLYAMGWYRQAPGKERELVASISWGDSSTYYADSVKGRFTISRDNAKNTVYLQMNSLKPEDTAVYYCAADEYRQYALYDYWGQGTQVTVSS | low polyreactivity
10 | QVQLVESGGGLVQAGGSLRLSCAASGITLDVNALGWYRQAPGKERELVADITWSDDSTYYADSVKGRFTISRDNAKNTVYLQMNSLKPEDTAVYYCAADVSVSFHPRGYDYWGQGTQVTVSS | low polyreactivity
11 | QVQLVESGGGLVQAGGSLRLSCAASGRTFGLNAMGWYRQAPGKERELVAAIDWRGVNTYYADSVKGRFTISRDNAKNTVYLQMNSLKPEDTAVYYCNARAYGRYYWGQGTQVTVSS | high polyreactivity
12 | QVQIVESGGGLVQAGGSLRLSCAASGRIFFVNTKGWYRQAPGKERELVATISWSGGSTYYADSVKGRFTISRDNAKNTVYLQMNSLKPEDTAVYYCNRSLTGYDELGYPVPYTYDYWGQGTQVTVSS | low polyreactivity
13 | QVQLVESCGGLVHAGGSLRLSCAASGRTCVGNVMGWYRQAPGKERELVAAISRSGGNTYYADSVKGRFTISRDNAKNTVYLLMNSLKPEDTAVYYCAKVGLYGPVEYDYWGQGTQVTVSS | high polyreactivity
14 | QVQLVESGGGLVQAGGSLRLSCAASGRIFYRYAMGWYRQAPGKERELVASISGSGGRTYYADSVKGRFTISRDNAKNTVYLQMNSLKPEDTAVYYCAARIRPSYDWGQGTQVTVSS | high polyreactivity
15 | QVQLVESGGGLVQAGGSLRLSCAASGRTFDAYAMGWYRQAPGKERELVATITSGGGTYYADSVKGRFTISRDNAKNTVYLQMNSLKPEDTAVYYCNISYVVSRKYDYWGQGTQVTVSS | low polyreactivity
16 | QVQLVESVGGLVQAGGSLRLICAASGFTFRRNAIGWYRQAPGKERELVAAITRSGGITYYADSVKGRFTISRDNAKNTVYLQMNSLKPEDTAVYYCNKQVTGAERFQGHGAYYWGQGTQVTVSS | high polyreactivity
17 | QVQLVDSGGGLVQAGGSLRLSCAASGSIFSYYAMGWYRPAPGTERELVAGLSWGGGRTYYADSVKGRFTISRDNAKNTVYLQMNSLKQEDTAVYYCAARLTGLDYWGQGTQVTVSS | high polyreactivity
18 | QVQLLESGGGLVQAGGSLRLSCAASGSIFWYNAMGWYRQAPGKERELVATISSRGDGTYYADSVKGRFTISRDNAKNTVYLQMNSLKPEDTAVYYCNKYRQQGWEFDYWGQGTQVTVSS | high polyreactivity
19 | QVQLVESGGGLVQAGGSLRLSSAASRSIFDYYAMGWYRQAPGKEREFVAAISESSDSTYYADSVKGRFTISRDNAKNTVYLQMNSLKPEDTAVYYCAGQRGGPFPRVVDLYDYWGQGTQVTVSS | low polyreactivity
20 | QVQLVESGGGLVQAGGSLRLSCAASGSTSQRNAMGWYRQAPGKERELVAAISRSGGSTSYADSVKGRFTISRDNAKNTVYLQMNSLKPEDTAVYYCNTDRRIYRVWYNYWGQGTQVTVSS | high polyreactivity
21 | QVQLQESGAALVQAGGSLRLSCAASGNIFVDAYMGWYRQAPGKERELVATIAPADSVKGRFTISRDNAKNTVYLQMNRLKPEDTAVYYCAAFTGYSSVFGFWGQGIQVTVSS | high polyreactivity
22 | QVQLVESGGGLVQAGGSLRLSCAASGLIFSSYPKGWYRQAPGKEWVLVAAITRTGGDTYYADSVKGRFTISRDNAQNSFYLQMNSLKPEDTAVYYCSSSGPQYYSRNFDYWGQGTQVTVSS | low polyreactivity
